One assay addresses GroEL (E. coli, UniProt P0A6F5 1-548). As to the kind of experiment: MST.
Assay [1] concerns the target GroEL^SR (GroEL R452A/E461A/S463A/V464A) (E. coli, UniProt P0A6F5 1-548, R452A | E461A | S463A | V464A). As to the kind of experiment: MST.

B1: GroES^7I25D_(1,4,7) (other)
chain: MNIRPLHDRVIVKRKEVETKSAGGDVLTGSAAAKSTRGEVLAVGNGRILENGEVKPLDVKVGDIVIFNDGYGVKSEKIDNEEVLIMSESDILAIVEAMNIRPLHDRVIVKRKEVETKSAGGIVLTGSAAAKSTRGEVLAVGNGRILENGEVKPLDVKVGDIVIFNDGYGVKSEKIDNEEVLIMSESDILAIVEAMNIRPLHDRVIVKRKEVETKSAGGIVLTGSAAAKSTRGEVLAVGNGRILENGEVKPLDVKVGDIVIFNDGYGVKSEKIDNEEVLIMSESDILAIVEAMNIRPLHDRVIVKRKEVETKSAGGDVLTGSAAAKSTRGEVLAVGNGRILENGEVKPLDVKVGDIVIFNDGYGVKSEKIDNEEVLIMSESDILAIVEAMNIRPLHDRVIVKRKEVETKSAGGIVLTGSAAAKSTRGEVLAVGNGRILENGEVKPLDVKVGDIVIFNDGYGVKSEKIDNEEVLIMSESDILAIVEAMNIRPLHDRVIVKRKEVETKSAGGIVLTGSAAAKSTRGEVLAVGNGRILENGEVKPLDVKVGDIVIFNDGYGVKSEKIDNEEVLIMSESDILAIVEAMNIRPLHDRVIVKRKEVETKSAGGDVLTGSAAAKSTRGEVLAVGNGRILENGEVKPLDVKVGDIVIFNDGYGVKSEKIDNEEVLIMSESDILAIVEA
modifications: DyLight 650 NHS ester on amines (for MST)
Usually Kd stands for the equilibrium constant for the complex coming apart. For the molecule B1, binding with GroEL was put at a Kd of 40 nM.

B2: GroES^7I25A_(1,4,7) (other)
chain: MNIRPLHDRVIVKRKEVETKSAGGAVLTGSAAAKSTRGEVLAVGNGRILENGEVKPLDVKVGDIVIFNDGYGVKSEKIDNEEVLIMSESDILAIVEAMNIRPLHDRVIVKRKEVETKSAGGIVLTGSAAAKSTRGEVLAVGNGRILENGEVKPLDVKVGDIVIFNDGYGVKSEKIDNEEVLIMSESDILAIVEAMNIRPLHDRVIVKRKEVETKSAGGIVLTGSAAAKSTRGEVLAVGNGRILENGEVKPLDVKVGDIVIFNDGYGVKSEKIDNEEVLIMSESDILAIVEAMNIRPLHDRVIVKRKEVETKSAGGAVLTGSAAAKSTRGEVLAVGNGRILENGEVKPLDVKVGDIVIFNDGYGVKSEKIDNEEVLIMSESDILAIVEAMNIRPLHDRVIVKRKEVETKSAGGIVLTGSAAAKSTRGEVLAVGNGRILENGEVKPLDVKVGDIVIFNDGYGVKSEKIDNEEVLIMSESDILAIVEAMNIRPLHDRVIVKRKEVETKSAGGIVLTGSAAAKSTRGEVLAVGNGRILENGEVKPLDVKVGDIVIFNDGYGVKSEKIDNEEVLIMSESDILAIVEAMNIRPLHDRVIVKRKEVETKSAGGAVLTGSAAAKSTRGEVLAVGNGRILENGEVKPLDVKVGDIVIFNDGYGVKSEKIDNEEVLIMSESDILAIVEA
modifications: DyLight 650 NHS ester on amines (for MST)
With B2, binding with GroEL was characterised by a dissociation constant (Kd) of 77.2 nM.

B3: GroES^7I25A1 (other)
chain: MNIRPLHDRVIVKRKEVETKSAGGAVLTGSAAAKSTRGEVLAVGNGRILENGEVKPLDVKVGDIVIFNDGYGVKSEKIDNEEVLIMSESDILAIVEAMNIRPLHDRVIVKRKEVETKSAGGIVLTGSAAAKSTRGEVLAVGNGRILENGEVKPLDVKVGDIVIFNDGYGVKSEKIDNEEVLIMSESDILAIVEAMNIRPLHDRVIVKRKEVETKSAGGIVLTGSAAAKSTRGEVLAVGNGRILENGEVKPLDVKVGDIVIFNDGYGVKSEKIDNEEVLIMSESDILAIVEAMNIRPLHDRVIVKRKEVETKSAGGIVLTGSAAAKSTRGEVLAVGNGRILENGEVKPLDVKVGDIVIFNDGYGVKSEKIDNEEVLIMSESDILAIVEAMNIRPLHDRVIVKRKEVETKSAGGIVLTGSAAAKSTRGEVLAVGNGRILENGEVKPLDVKVGDIVIFNDGYGVKSEKIDNEEVLIMSESDILAIVEAMNIRPLHDRVIVKRKEVETKSAGGIVLTGSAAAKSTRGEVLAVGNGRILENGEVKPLDVKVGDIVIFNDGYGVKSEKIDNEEVLIMSESDILAIVEAMNIRPLHDRVIVKRKEVETKSAGGIVLTGSAAAKSTRGEVLAVGNGRILENGEVKPLDVKVGDIVIFNDGYGVKSEKIDNEEVLIMSESDILAIVEA
modifications: DyLight 650 NHS ester on amines (for MST)
On to B3, for which the Kd with GroEL came out at 4.6 nM.

B4: GroES^7I25D1,3 (other)
chain: MNIRPLHDRVIVKRKEVETKSAGGDVLTGSAAAKSTRGEVLAVGNGRILENGEVKPLDVKVGDIVIFNDGYGVKSEKIDNEEVLIMSESDILAIVEAMNIRPLHDRVIVKRKEVETKSAGGIVLTGSAAAKSTRGEVLAVGNGRILENGEVKPLDVKVGDIVIFNDGYGVKSEKIDNEEVLIMSESDILAIVEAMNIRPLHDRVIVKRKEVETKSAGGDVLTGSAAAKSTRGEVLAVGNGRILENGEVKPLDVKVGDIVIFNDGYGVKSEKIDNEEVLIMSESDILAIVEAMNIRPLHDRVIVKRKEVETKSAGGIVLTGSAAAKSTRGEVLAVGNGRILENGEVKPLDVKVGDIVIFNDGYGVKSEKIDNEEVLIMSESDILAIVEAMNIRPLHDRVIVKRKEVETKSAGGIVLTGSAAAKSTRGEVLAVGNGRILENGEVKPLDVKVGDIVIFNDGYGVKSEKIDNEEVLIMSESDILAIVEAMNIRPLHDRVIVKRKEVETKSAGGIVLTGSAAAKSTRGEVLAVGNGRILENGEVKPLDVKVGDIVIFNDGYGVKSEKIDNEEVLIMSESDILAIVEAMNIRPLHDRVIVKRKEVETKSAGGIVLTGSAAAKSTRGEVLAVGNGRILENGEVKPLDVKVGDIVIFNDGYGVKSEKIDNEEVLIMSESDILAIVEA
modifications: DyLight 650 NHS ester on amines (for MST)
Take B4: the Kd in the assay with GroEL worked out at 13.3 nM; in assay [1], 71.9 nM.

B5: GroES^7I25A1,3 (other)
chain: MNIRPLHDRVIVKRKEVETKSAGGAVLTGSAAAKSTRGEVLAVGNGRILENGEVKPLDVKVGDIVIFNDGYGVKSEKIDNEEVLIMSESDILAIVEAMNIRPLHDRVIVKRKEVETKSAGGIVLTGSAAAKSTRGEVLAVGNGRILENGEVKPLDVKVGDIVIFNDGYGVKSEKIDNEEVLIMSESDILAIVEAMNIRPLHDRVIVKRKEVETKSAGGAVLTGSAAAKSTRGEVLAVGNGRILENGEVKPLDVKVGDIVIFNDGYGVKSEKIDNEEVLIMSESDILAIVEAMNIRPLHDRVIVKRKEVETKSAGGIVLTGSAAAKSTRGEVLAVGNGRILENGEVKPLDVKVGDIVIFNDGYGVKSEKIDNEEVLIMSESDILAIVEAMNIRPLHDRVIVKRKEVETKSAGGIVLTGSAAAKSTRGEVLAVGNGRILENGEVKPLDVKVGDIVIFNDGYGVKSEKIDNEEVLIMSESDILAIVEAMNIRPLHDRVIVKRKEVETKSAGGIVLTGSAAAKSTRGEVLAVGNGRILENGEVKPLDVKVGDIVIFNDGYGVKSEKIDNEEVLIMSESDILAIVEAMNIRPLHDRVIVKRKEVETKSAGGIVLTGSAAAKSTRGEVLAVGNGRILENGEVKPLDVKVGDIVIFNDGYGVKSEKIDNEEVLIMSESDILAIVEA
modifications: DyLight 650 NHS ester on amines (for MST)
Consider B5, for which the Kd was 10 nM with GroEL and 39.7 nM in assay [1].

B6: GroES^7I25D1 (other)
chain: MNIRPLHDRVIVKRKEVETKSAGGDVLTGSAAAKSTRGEVLAVGNGRILENGEVKPLDVKVGDIVIFNDGYGVKSEKIDNEEVLIMSESDILAIVEAMNIRPLHDRVIVKRKEVETKSAGGIVLTGSAAAKSTRGEVLAVGNGRILENGEVKPLDVKVGDIVIFNDGYGVKSEKIDNEEVLIMSESDILAIVEAMNIRPLHDRVIVKRKEVETKSAGGIVLTGSAAAKSTRGEVLAVGNGRILENGEVKPLDVKVGDIVIFNDGYGVKSEKIDNEEVLIMSESDILAIVEAMNIRPLHDRVIVKRKEVETKSAGGIVLTGSAAAKSTRGEVLAVGNGRILENGEVKPLDVKVGDIVIFNDGYGVKSEKIDNEEVLIMSESDILAIVEAMNIRPLHDRVIVKRKEVETKSAGGIVLTGSAAAKSTRGEVLAVGNGRILENGEVKPLDVKVGDIVIFNDGYGVKSEKIDNEEVLIMSESDILAIVEAMNIRPLHDRVIVKRKEVETKSAGGIVLTGSAAAKSTRGEVLAVGNGRILENGEVKPLDVKVGDIVIFNDGYGVKSEKIDNEEVLIMSESDILAIVEAMNIRPLHDRVIVKRKEVETKSAGGIVLTGSAAAKSTRGEVLAVGNGRILENGEVKPLDVKVGDIVIFNDGYGVKSEKIDNEEVLIMSESDILAIVEA
modifications: DyLight 650 NHS ester on amines (for MST)
With B6, the Kd was 4.07 nM in the assay with GroEL and 25.6 nM in assay [1].

B7: GroES^7I25D1,4 (other)
chain: MNIRPLHDRVIVKRKEVETKSAGGDVLTGSAAAKSTRGEVLAVGNGRILENGEVKPLDVKVGDIVIFNDGYGVKSEKIDNEEVLIMSESDILAIVEAMNIRPLHDRVIVKRKEVETKSAGGIVLTGSAAAKSTRGEVLAVGNGRILENGEVKPLDVKVGDIVIFNDGYGVKSEKIDNEEVLIMSESDILAIVEAMNIRPLHDRVIVKRKEVETKSAGGIVLTGSAAAKSTRGEVLAVGNGRILENGEVKPLDVKVGDIVIFNDGYGVKSEKIDNEEVLIMSESDILAIVEAMNIRPLHDRVIVKRKEVETKSAGGDVLTGSAAAKSTRGEVLAVGNGRILENGEVKPLDVKVGDIVIFNDGYGVKSEKIDNEEVLIMSESDILAIVEAMNIRPLHDRVIVKRKEVETKSAGGIVLTGSAAAKSTRGEVLAVGNGRILENGEVKPLDVKVGDIVIFNDGYGVKSEKIDNEEVLIMSESDILAIVEAMNIRPLHDRVIVKRKEVETKSAGGIVLTGSAAAKSTRGEVLAVGNGRILENGEVKPLDVKVGDIVIFNDGYGVKSEKIDNEEVLIMSESDILAIVEAMNIRPLHDRVIVKRKEVETKSAGGIVLTGSAAAKSTRGEVLAVGNGRILENGEVKPLDVKVGDIVIFNDGYGVKSEKIDNEEVLIMSESDILAIVEA
modifications: DyLight 650 NHS ester on amines (for MST)
For B7, the Kd in the assay with GroEL was 9.58 nM; in assay [1] it was 73.1 nM.

B8: GroES^7I25A1,2 (other)
chain: MNIRPLHDRVIVKRKEVETKSAGGAVLTGSAAAKSTRGEVLAVGNGRILENGEVKPLDVKVGDIVIFNDGYGVKSEKIDNEEVLIMSESDILAIVEAMNIRPLHDRVIVKRKEVETKSAGGAVLTGSAAAKSTRGEVLAVGNGRILENGEVKPLDVKVGDIVIFNDGYGVKSEKIDNEEVLIMSESDILAIVEAMNIRPLHDRVIVKRKEVETKSAGGIVLTGSAAAKSTRGEVLAVGNGRILENGEVKPLDVKVGDIVIFNDGYGVKSEKIDNEEVLIMSESDILAIVEAMNIRPLHDRVIVKRKEVETKSAGGIVLTGSAAAKSTRGEVLAVGNGRILENGEVKPLDVKVGDIVIFNDGYGVKSEKIDNEEVLIMSESDILAIVEAMNIRPLHDRVIVKRKEVETKSAGGIVLTGSAAAKSTRGEVLAVGNGRILENGEVKPLDVKVGDIVIFNDGYGVKSEKIDNEEVLIMSESDILAIVEAMNIRPLHDRVIVKRKEVETKSAGGIVLTGSAAAKSTRGEVLAVGNGRILENGEVKPLDVKVGDIVIFNDGYGVKSEKIDNEEVLIMSESDILAIVEAMNIRPLHDRVIVKRKEVETKSAGGIVLTGSAAAKSTRGEVLAVGNGRILENGEVKPLDVKVGDIVIFNDGYGVKSEKIDNEEVLIMSESDILAIVEA
modifications: DyLight 650 NHS ester on amines (for MST)
As for B8, the Kd in the assay with GroEL was found to be 8.97 nM; in assay [1], 35 nM.

These data come from paper PMC5575113 (2017).
